{"source": "patent US5958721", "target": "rabbit MAP kinase kinase (MAPKK) (rabbit) (UniProt P29678)", "data": [{"substance": "ΔRaf-1 (human Raf-1 lacking the first 324 amino acids) (from UniProt P04049) (enzyme)", "values": [{"measurement": "MAPKK phosphorylation in S. pombe (32P-orthophosphate labelling, immunoprecipitation, phosphorimager)", "result": "> 5", "unit": "fold"}]}]}
